# B1: PD_(RgpB), recombinant N-terminal prodomain of RgpB (domain or fragment)
# chain: GPLGSQPAERGRNPQVRLLSAEQSMSKVQFRMDNLQFTGVQTSKGVAQVPTFTEGVNISEKGTPILPILSRSLAVSETRAMKVEVVSSKFIEKKDVLIAPSKGVISRAENPDQIPYVYGQSYNEDKFFPGEIATLSDPFILRDVRGQVVNFAPLQYNPVTKTLRIYTEIVVAVSETAEAGQNTISLVKNSTFTGFEDIYKSVFMNYEATR
# B2: PD_(RgpA), recombinant N-terminal prodomain of RgpA (domain or fragment)
# chain: QQTELGRNPNVRLLESTQQSVTKVQFRMDNLKFTEVQTPKGMAQVPTYTEGVNLSEKGMPTLPILSRSLAVSDTREMKVEVVSSKFIEKKNVLIAPSKGMIMRNEDPKKIPYVYGKSYSQNKFFPGEIATLDDPFILRDVRGQVVNFAPLQYNPVTKTLRIYTEITVAVSETSEQGKNILNKKGTFAGFEDTYKRMFMNYEPGR
# How the values were obtained:
# [1] = target: T1, low molecular weight gingipain R (RgpB) (Porphyromonas gingivalis, UniProt P95493 230-664); assay: cell-based or functional assay
# [2] = target: T1, low molecular weight gingipain R (RgpB); assay: cell-based or functional assay; remark: listed apart in the source
# [3] = target: membrane-type RgpB (mt-RgpB), glycosylated (Porphyromonas gingivalis, UniProt P95493 230-736, heavily glycosylated); assay: cell-based or functional assay
# gingipain K (Kgp) = gingipain K (Kgp) (Porphyromonas gingivalis); assay: enzyme inhibition kinetics
# [4] = target: T1, low molecular weight gingipain R (RgpB); assay: SEC
# [5] = target: T1, low molecular weight gingipain R (RgpB); assay: enzyme inhibition kinetics
# [6] = target: T1, low molecular weight gingipain R (RgpB); assay: enzyme inhibition kinetics; remark: listed apart in the source
Binder,"IC50 of inhibition of amidolytic activity (L-BAPNA), 10 nM enzyme [1] [nM]","IC50 of inhibition of aminopeptidase activity (H-Arg-AMC), 10 nM enzyme [1] [nM]","IC50 of inhibition of proteolytic activity (Azocoll), 10 nM enzyme [1] [nM]",IC50 of inhibition of Rgp activity (L-BAPNA): RgpB (purified non-glycosylated) [2] [nM],IC50 of inhibition of Rgp activity (L-BAPNA): mt-RgpB (purified) [3] [nM],Ki (gingipain K (Kgp)) [nM],stoichiometry N [4],koff [5] [s⁻¹],kon [5] [M⁻¹ s⁻¹],Ki [6] [nM]
B1,23.7,7.2,7.1,15,188,> 5000,1,3.1e-05,5020,6.2
B2,15.7,6.9,7.3,,,> 5000,,1.3e-05,6070,2.1

# — publication PMC3773880 (Biochimica et biophysica acta, 2013)
